Measurements: patent publication US20020081652A1 (YEDA RESEARCH AND DEVELOPMENT, published 2002)

Key:
α-bungarotoxin = target: T1, α-bungarotoxin (UniProt P60615 22-95); experiment: blot overlay with 125I-α-BTX, 20 µg fragment
T1 sequence: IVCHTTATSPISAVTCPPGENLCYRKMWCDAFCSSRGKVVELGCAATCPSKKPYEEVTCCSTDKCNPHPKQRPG

mAb 198 = experiment: competition ELISA: fragment preincubated with mAb 198, binding of mAb 198 to coated Torpedo AChR read
Method: Microtiter plates were coated with Torpedo AChR (1 μg/ml) in PBS and incubated overnight at 4° C.

B1: Hα1-210 fused to thioredoxin (Trx-Hα1-210) (receptor)
chain: SEHETRLVAKLFKDYSSVVRPVEDHRQVVEVTAGLQLIQLINVDEVNQIVTTNVRLKQGDMVDLPRPSCVTLGVPLFSHLQDEQWVDYNLKWNPDDYGGVKKIHIPSEKIWRPDLVLYNNADGDFAIVKFTKVLLQYTGHITWTPPAIFKSYCEIIVTHFPFDEQNCSMKLGTWTYDGSVVAINPESDQPDLSNFMESGEWVIKESRGWKHSVTYSCCPDTPYLDITYHFVMQRL
notes: Solubilised from inclusion bodies in 9 M urea and dialysed; also called Trx-H1α-210; 'more native' fragment; not shown: thioredoxin (Trx) encoded by the pThioHis-A vector (Invitrogen); the vector's thioredoxin may
B1 was tested, and the binding result (α-bungarotoxin) was “binds” and the IC50 (mAb 198) was 0.3 µM.

B2: Hα1-205 expressed with no fusion partner (receptor)
chain: SEHETRLVAKLFKDYSSVVRPVEDHRQVVEVTAGLQLIQLINVDEVNQIVTTNVRLKQGDMVDLPRPSCVTLGVPLFSHLQDEQWVDYNLKWNPDDYGGVKKIHIPSEKIWRPDLVLYNNADGDFAIVKFTKVLLQYTGHITWTPPAIFKSYCEIIVTHFPFDEQNCSMKLGTWTYDGSVVAINPESDQPDLSNFMESGEWVIKESRGWKHSVTYSCCPDTPYLDITYHF
notes: The 5' primer adds an initiation codon (and a Gly codon) before residue 1; also called 'less native' fragment
With B2 the IC50 (mAb 198) was 3.3 µM.
